Data reported in patent US20030139374A1 (University of Texas, published 2003).
Numbering of substitutions follows the chain as printed. Numbers in names are those of the source.

Legend:
[1] = test system: Mouse bEnd.3 endothelial cells; assay: Phosphatidylserine induction by hydrogen peroxide; format: cell-based
Method: Mouse bEnd.3 endothelial cells were seeded at an initial density of 50,000 cells/well. Twenty-fours later cells were incubated with increasing concentrations of H2O2 (from 10 μM to 500 μM) for 1 hour at 37° C. or left untreated. At the end of the incubation, cells were washed 3 times with PBS containing 0.2% gelatin and fixed with 0.25% glutaraldehyde. Identical wells were either stained with anti-PS IgM or trypsinized and evaluated for viability by the Trypan Blue exclusion test. For the anti-PS staining, after blocking with 2% gelatin for 10 min., cells were incubated with 2 μg/ml of anti-PS antibody, followed by detection with anti-mouse IgM-HRP conjugate.

[2] = test system: bEnd 3 cells; assay: Cell bound coagulation assay on stimulated bEnd 3 endothelial cells (factor Xa generation); format: cell-based, murine
[3] = test system: Mouse endothelial cells; assay: TNFα, cell based two stage coagulation assay
Method: Mouse endothelial cells were seeded in 48 well tissue culture plates and allowed to adhere overnight. Cells were stimulated with TNFα at the following concentrations: 500 U/ml 100 U/ml; 20 U/ml; 4 U/ml; 0.8 U/ml 0.16 U/ml; and with medium only.
Endothelial cells were also tested for coagulant activity in a cell based two stage coagulation assay. After incubation with TNFα, cells were washed and incubated with coagulation factor mix (0.5 μg/ml factor VIIa in a mix containing 2.8 μg/ml factor IX, 3.4 μg/ml factor X, 50 μM phospholipids in calcium buffer). The supernatant of wells was transferred into a 96 well ELISA plate. Substrate S2765 was added and Factor Xa generation measured.

[4] = test system: tissue factor on the surface of HUVEC cells; assay: FACS analysis of tissue factor expression on HUVEC; format: cell-based, human; settings: TNFα 500 U/ml, LPS 10 μg/ml, VEGF 1 nM; 6 h
Method: To analyze tissue factor expression on the surface of endothelial cells, HUVEC cells were incubated with TNFα (500 U/ml), LPS (10 μg/ml) or vascular endothelial growth factor (VEGF, 1 nM) alone or in combination for 6 h at 37°. Cells were then detached and stained for surface expression of human tissue factor with a sheep-anti-human tissue factor antibody (Haemochrom, Essen, Germany) and an appropriate FITC-conjugated secondary antibody. Fluorescent cells were detected on a flow cytometer (Becton Dickinson, San Jose, Calif.).

[5] = test system: A20 lymphoma cells; assay: In vitro coagulation assay on A20 cells with B21-2/10H10 capture antibody; format: cell-based, mouse; settings: for concentration at which plasma coagulated in 50 seconds: bound via B21-2/10H10 to A20 cells; for coagulation times versus tTF219 and Factor VIIa at the same concentrations: Factor VIIa at 1 nM or greater
[6] = test system: HT29 (human colorectal carcinoma) xenograft; assay: HT29 xenograft necrosis after tTF constructs with Factor VIIa; parameters: species or system BALB/c nu/nu mice; settings: mouse, in vivo, iv
[7] = target: T1, recombinant human VEGF (VEGF165) (human, UniProt P15692-4 27-191, biotinylated in the capture and competition ELISAs); assay: competition ELISA, 1 nM VEGF on VEGFR1 (Flt-1/Fc) wells, 100 fold molar excess of 2C3
T1 construct: also called free VEGF; VEGF-biotin
T1 sequence (P15692 other isoform, or with tags, fused parts or gaps limits assumed): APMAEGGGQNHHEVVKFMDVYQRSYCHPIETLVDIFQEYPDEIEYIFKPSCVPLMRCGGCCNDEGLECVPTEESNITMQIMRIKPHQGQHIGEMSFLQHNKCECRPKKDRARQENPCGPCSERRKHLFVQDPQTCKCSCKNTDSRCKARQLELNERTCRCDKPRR

[8] = target: T1, recombinant human VEGF (VEGF165); assay: competition ELISA, 1 nM VEGF on VEGFR1 (Flt-1/Fc) wells, 1000 fold molar excess of 2C3
[9] = target: T2, VEGF:Flk-1 complex (human; mouse, UniProt P15692 27-191; P35918 20-762, biotinylated); assay: capture ELISA, antibody-coated wells, soluble VEGF:sFlk-1-biotin titrated
T2 construct: Formed overnight at 4 C at a molar ratio of sFlk-1 to VEGF of 2.5:1; also called VEGF:receptor complex; VEGF:sFlk-1
T2 sequence (P15692 other isoform, or with tags, fused parts or gaps limits assumed, chain 1 of 2): as the sequence (P15692 other isoform, or with tags, fused parts or gaps limits assumed) above
T2 sequence (P35918 20-762 limits assumed, chain 2 of 2): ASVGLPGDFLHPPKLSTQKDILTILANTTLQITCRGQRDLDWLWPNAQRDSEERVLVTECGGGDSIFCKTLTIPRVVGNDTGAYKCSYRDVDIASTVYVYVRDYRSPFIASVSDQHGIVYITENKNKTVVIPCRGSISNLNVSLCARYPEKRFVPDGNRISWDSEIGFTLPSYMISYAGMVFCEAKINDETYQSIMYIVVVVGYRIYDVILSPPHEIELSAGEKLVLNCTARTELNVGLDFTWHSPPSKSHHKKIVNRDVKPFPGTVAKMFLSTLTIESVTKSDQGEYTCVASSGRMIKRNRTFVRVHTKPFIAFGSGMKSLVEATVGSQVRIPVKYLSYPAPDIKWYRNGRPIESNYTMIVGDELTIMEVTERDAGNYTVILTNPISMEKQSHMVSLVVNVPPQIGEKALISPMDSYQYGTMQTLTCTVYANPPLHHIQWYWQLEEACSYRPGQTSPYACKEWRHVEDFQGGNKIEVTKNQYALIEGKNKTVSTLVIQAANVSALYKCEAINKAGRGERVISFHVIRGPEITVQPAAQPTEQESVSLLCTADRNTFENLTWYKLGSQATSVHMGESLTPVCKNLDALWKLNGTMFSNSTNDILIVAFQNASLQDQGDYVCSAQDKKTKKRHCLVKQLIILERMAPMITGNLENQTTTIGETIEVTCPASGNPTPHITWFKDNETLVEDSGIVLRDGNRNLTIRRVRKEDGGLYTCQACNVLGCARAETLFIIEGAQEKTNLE

[10] = target: T1, recombinant human VEGF (VEGF165); assay: capture ELISA, antibody-coated wells, biotinylated VEGF titrated
[11] = test system: factor X to Xa conversion; assay: Factor Xa production assay on A20 cells; format: cell-based; settings: Factors II, VII and IX present

OO [H2O2]
cells with PS detected at the cell surface ([1]; concentrations as low as 20 μM): about 50%
cell viability ([1]; low levels of H2O2 (lower than 100 μM), identical to untreated): 95%

TNFα
Factor Xa generation ([2]; stimulation with TNFα (500 U/ml), then incubation with labelled agent (label TNFα = medium only), 0.5 μg/ml factor VIIa): 0.35 nkatS2222
Factor Xa generation due to Factor VIIa production ([2]; stimulation with TNFα (label TNFα = medium only), 2 μg/ml factor VII and 0.01 μg/ml factor VIIa, factor VII-only values subtracted): 1.23 nkatS2222
fold lower dose for coagulant effect than for VCAM-1 upregulation [3]: 125 fold
TNFα at which an increase in comparison to the negative control could be detected ([3]; coagulation assay): 0.16 U/ml
tissue factor expression on the surface of endothelial cells [4]: upregulated

VEGF
tissue factor expression on the surface of endothelial cells [4]: upregulated

B1: H6-tTF220-cys-C′: tTF with Ile-Cys after amino acid 219, (His)6 tag (protein)
chain: HHHHHHAMALVPRGSGTTNTVAAYNLTWKSTNFKTILEWEPKPVNQVYTVQISTKSGDWKSKCFYTTDTECDLTDEIVKDVKQTYLARVFSYPAGNVESTGSAGEPLYENSPEFTPYLETNLGQPTIQSFEQVGTKVNVTVEDERTLVRRNNTFLSLRDVFGKDLIYTLYYWKSSSSGKKTAKTNTNEFLIDVDKGENYCFSVQAVIPSRTVNRKSTDSPVECMGQEKGEFRE
concentration at which plasma coagulated in 50 seconds [5]: 0.5 nM

B2: H6-tTF221-cys-C′: tTF with Ile-Phe-Cys after amino acid 219, (His)6 tag (protein)
chain: B1 chain
concentration at which plasma coagulated in 50 seconds [5]: 0.5 nM
concentration at which plasma coagulated in 50 seconds ([5]; listed as H6-tTF221-cys-C′ monomer): 1 nM

B3: H6-tTF221-cys-C′ dimer: chemically conjugated disulfide dimer of H6-tTF221-cys-C′ (protein)
chain: B1 chain
fold less active at inducing coagulation of plasma than tTF219 / unconjugated or monomeric form [5]: 4 fold

B4: Factor VIIa: recombinant human Factor VIIa (protein)
chain: ANAFLEELRPGSLERECKEEQCSFEEAREIFKDAERTKLFWISYSDGDQCASSPCQNGGSCKDQLQSYICFCLPAFEGRNCETHKDDQLICVNENGGCEQYCSDHTGTKRSCRCHEGYSLLADGVSCTPTVEYPCGKIPILEKRNASKPQGRIVGGKVCPKGECPWQVLLLVNGAQLCGGTLINTIWVVSAAHCFDKIKNWRNLIAVLGEHDLSEHDGDEQSRRVAQVIIPSTYVPGTTNHDIALLRLHQPVVLTDHVVPLCLPERTFSERTLAFVRFSLVSGWGQLLDRGATALELMVLNVPRLMTQDCLQQSRKVGDSPNITEYMFCAGYSDGSKDSCKGDSGGPHATHYRGTWYLTGIVSWGQGCATVGHFGVYTRVSQYIEWLQKLMRSEPRPGVLLRAPFP
necrosis, average area as percentage of total tumor area [6]: some necrosis

B5: anti-VEGF antibody 2C3 (antibody, V domains shown)
VH: QVQLQESGPELVKPGASVKMSCKASGYTFTSYVFHWVKQKPGQGLEWIGYINPYNDVTKYNEKFKGKATLTSDKSSSTAYMELSSLTSEDSAVYYCASYYGSSYGYYAMDDWGQGTTVTVSS
VL: DIQLTQSPASLSVSAGEKVTMSCKSSQSLLNSGNQKNYLAWYQQKPGQPPKLLIHGASTRESGVPDRFTGSGSGTDFTLTISSVQAEDLAVYYCQNDYSYPLTFGAGTKLELKR
percent of VEGF bound to VEGFR1-coated wells relative to no 2C3 [7]: 92%
percent of VEGF bound to VEGFR1-coated wells relative to no 2C3 [8]: 105%
EC50 [9]: 150 nM
EC50 [10]: 1 nM

B6: H6-tTF219-cys-C′: tTF219 with (His)6 tag and a Cys after amino acid 219 (protein)
chain: HHHHHHAMALVPRGSGTTNTVAAYNLTWKSTNFKTILEWEPKPVNQVYTVQISTKSGDWKSKCFYTTDTECDLTDEIVKVKQTYLARVFSYPAGNVESTGSAGEPLYENSPEFTPYLETNLGQPTIQSFEQVGTKVNVTVEDRTLVRRNNTFLSLRDVFGKDLIYTLYYWKSSSSGKKTAKTNTNEFLIDVDKGENYCFSVQAVIPSRTVNRKSTDSPVECMGQEKGEFREC
concentration at which plasma coagulated in 50 seconds [5]: 3 nM

B7: tTF219 (G164A): tTF219 with amino acid 164 (Gly) replaced by Ala (protein)
chain: GSGTTNTVAAYNLTWKSTNFKTILEWEPKPVNQVYTVQISTKSGDWKSKCFYTTDTECDLTDEIVKDVKQTYLARVFSYPAGNVESTGSAGEPLYENSPEFTPYLETNLGQPTIQSFEQVGTKVNVTVEDERTLVRRNNTFLSLRDVFGKDLIYTLYYWKSSSSAKKTAKTNTNEFLIDVDKGENYCFSVQAVIPSRTVNRKSTDSPVECMGQEKGEFRE
necrosis, average area as percentage of total tumor area [6]: some necrosis
coagulation times versus tTF219 and Factor VIIa at the same concentrations [5]: only marginally slower coagulation times

B8: tTF219 (W158R) (protein)
chain: B7 chain with W159R, A165G
coagulation times versus tTF219 and Factor VIIa at the same concentrations [5]: only marginally slower coagulation times

B9: IgG-H6-N′-cys-tTF219: one molecule of IgG linked via SMPT to one or two molecules of H6-N′-cys-tTF219 (conjugate)
chain: HHHHHHAMALVPRGSCGTTNTVAAYNLTWKSTNFKTILEWEPKPVNQVYTVQISTKSGDWKSKCFYTTDTECDLTDEIVKDVKQTYLARVFSYPAGNVESTGSAGEPLYENSPEFTPYLETNLGQPTIQSFEQVGTKVNVTVEDERTLVRRNNTFLSLRDVFGKDLIYTLYYWKSSSSGKKTAKTNTNEFLIDVDKGENYCFSVQAVIPSRTVNRKSTDSPVECMGQEKGEFRE
modifications: left off: large carriers
activity at inducing Xa formation relative to H6-N′-cys-tTF219 (fold less active) [11]: 2 fold
fold less active at inducing coagulation of plasma than tTF219 / unconjugated or monomeric form [5]: 5 fold
concentration at which plasma coagulated in 50 seconds [5]: 5 nM

B10: Fab′-H6-N′-cys-tTF219: Fab′ fragment disulfide-linked to H6-N′-cys-tTF219 (conjugate)
chain: B9 chain
modifications: left off: another chain or arm of the molecule; large carriers
activity at inducing Xa formation relative to H6-N′-cys-tTF219 (fold less active) [11]: as active as
